Values quoted from earlier work as cited in paper PMC6669380.
pKd: −log10 of the molar value.

Molecular target: SLP-76 RxxK motif (Homo sapiens) (UniProt Q13094)

Q: With “Gads C-terminal SH3 (from UniProt O75791)” as the substance, how does the pKd read?
A: 7.84
